Measurements taken from patent publication EP4790144A1 (Peking Union Medical College Hospital, dated 2026).

T1: 2023-601 project-ABCD1 protein (human, UniProt P33897 650-745)
T1 construct: also called antigen protein ABCD1
T1 sequence: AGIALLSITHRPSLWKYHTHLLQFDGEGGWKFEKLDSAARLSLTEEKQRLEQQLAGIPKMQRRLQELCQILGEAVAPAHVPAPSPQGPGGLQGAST

B1: 07PC08 (antibody, V domains shown)
VH: EVKLEESGGGLVQPGGSMKLSCGASGFTFSDAWMDWVRQSPEKGLEWVAEIRSKAINHATYYAESVKGRFTISRDDSKSSVYLQMNSLRAEDTGIYYCTRRVDWYFDVWGAGTTVTVSS
VL: DILLTQSPAILSVSPGERVSFSCRASQSIGTSIYWYQQRTNGSPRLLIKYASESISGIPSRFSGSGSGTDFTLSINSVESEDIADYYCQQSNSWPLTFGAGTKLELK
B2: 07PC09 (antibody, V domains shown)
VH: IVMLVESGGGLVKPGGSLKLSCVASGFTFSTYAMSWIRQTPEKRLAWVATISSGGSSTYYSDSVKGRFTISRDNAKNTLYLQMSSLRSEDTAMYYCARHGDWDGSLAYWGQGTQVTVSA
VL: DIVMTQSHKLMSTSVGDRVNITCKASQDVNAAVAWYQQQPGQSPKLLFYWASTRHTGVPDRFTGSGSRTDYTLTISGVQAEDLALYYCQQHYSAPRTFGGGTKLEVK
B3: 07TE04 (antibody, V domains shown)
VH: QVQLQQSGAELVKPGASVKLSCKASGYTFTRYYLYWVKQRPGQGLEWIGKINPTNGVADLNEKFKYKATLTVDKSSSTTHMQLSSLTSEDSAVYYCTRVYYKYDGFAYWGQGTLVTVSA
VL: DIVMTQSLKFMSTSVGDRVSIICKASQDVGTAVAWYQQKPAQSPKLLIYWASTRHTGVPDRFTGSGSGTDFTLTISNVQSEDLTDYFCQQYSSYPLTFGGGTKLEIK
B4: 07TE02 (antibody, V domains shown)
VH: DVKLVESGGGLVKPGGSLKLSCAASGLTFSIYAMSWVRQTPEKRLEWVATISAGDIYPYYSDSVKGRFAISRDNAKNTLYLQMSSLRSEDTAIYYCTSITMAMAYWGQGTLVTVSA
VL: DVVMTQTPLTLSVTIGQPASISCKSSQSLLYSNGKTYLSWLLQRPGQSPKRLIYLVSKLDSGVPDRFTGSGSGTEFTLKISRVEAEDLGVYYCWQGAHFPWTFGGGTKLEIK
B5: 07TE08 (antibody, V domains shown)
VH: DVKLVESGGGLVKPGGSLKLSCAASGFTFSIYAMSWVRQTPEKRLEWVATISAGDIYPYYSDSVKGRFAISRDNAKNTLFLQMSSLRSEDTAIYYCTSITMAMAYWGQGTLVTVSA
VL: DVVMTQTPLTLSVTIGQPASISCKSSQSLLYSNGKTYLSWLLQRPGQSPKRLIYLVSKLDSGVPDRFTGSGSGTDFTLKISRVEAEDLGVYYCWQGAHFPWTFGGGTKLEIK
B6: 07PC17 (antibody, V domains shown)
VH: QLQLVQSGPEVKKPGETVKISCKASGYAFTNYGMNWVKQAPGKDLKWMGWINTYTGDPVYGDDFKGRFAFSLDTSASTAYLQINNLKNEDTATYFCVREPIYYGWVDYWGQGTSVTVSS
VL: DIVMTQAAPSVPVTPGESASISCRSSKSLLHRNGNTYLYWFLQRPGQSPQVLIYRMSNLASGVPDRFSGSGSGTAFTLRISRVEAEDVGVYYCMQHLEYPYTFGGGTKLEIK
B7: 07PC28 (antibody, V domains shown)
VH: QIQLVQSGPELKKPGETVKISCKTSGYTFTDFGMNWVKRAPGQDLKWMGWINTYTGATTYGDEFKGRFAFSLETSASTASLQINNLKNEDSATYFCVREPLYYGWVDYWGQGTSVIVSS
VL: DIVMTQVAPSVPVTPGESVSISCRSSKSLLHRNGNTYLYWFLQRPGQSPQVLIYRMSNLASGVPDRFSGSGSGTAFTLRISRVEAEDVGVYYCMQHLEYPYTFGGGTKLEIK
B8: 07PC27 (antibody, V domains shown)
VH: QLQLVQSGPELKKPGETVKISCKASGYAFTNYGMNWVKQTPGKGLKWMGWINTYSGETTYGDDFKGRFAFSLETSASTAYLQINSLKNEDTATYFCVREPIYYGWVDYWGQGTSVTVSS
VL: DIVMTQAAPSVPVTPGESVSISCRSSKSLLHRNGNTYLYWFLQRPGQSPQVLIYRMSNLASGVPDRFSGSGSGTAFTLRISRVEAEDVGVYYCMQHLEYPYTFGGGTKLEIK
B9: 07PC03 (antibody, V domains shown)
VH: QLQLVQSGPEVKKPGETVKISCKASGYAFTNYGMNWVKQAPGKDLKWMGWIKTYTGDSVYGDDFKGRFAFSLDTSASTAYLQINDLKNEDTATYFCVREPIYYGWVDYWGQGTSVTVSS
VL: DIVMTQAAPSVPVTPGESASISCRSSKSLLHRNGNTYLYWFLQRPGQSPQVLIYRMSNLASGVPDRFSGSGSGTAFTLRISRVEAEDVGVYYCMQHLEYPYTFGGGTKLEIK

Target: T1, 2023-601 project-ABCD1 protein
Test: ELISA, ABCD1 protein coated at 2 ug/mL, HRP goat anti-mouse secondary antibody

| Binder | binding result |
| --- | --- |
| B1 | binds |
| B2 | binds |
| B3 | binds |
| B4 | binds |
| B5 | binds |
| B6 | binds |
| B7 | binds |
| B8 | binds |
| B9 | binds |
